In paper PMC11446282:
Where two headings read alike, the source gives them in different places. Values belong to the molecule of their own block, whether it stands above or below them.

Key:
[1] = tested on: PP2A-B55 isoforms; type: binding, human; details: MS, n = 4; for log2_ratio WT_M: YFP-PME1 wild-type versus mutant IP; for log2_ratio WT_C: wild-type versus control IP
Protocol: Standard cloning techniques were used throughout. Point mutations were introduced by whole plasmid polymerase chain reaction (PCR). All constructs were fully sequenced. Synthetic DNA was purchased from GeneArt, Life Technologies and cloned into pcDNA5/FRT/TO (Invitrogen) expression vector containing YFP, resulting in the indicated YFP fusion proteins. These constructs were transiently transfected into HeLa cells 24 hours before harvesting cells. Cells were lysed in lysis buffer [50 mM tris-HCl (pH 7.5), 50 mM NaCl, 1 mM EDTA, 1 mM […], and 0.1% NP-40]. Complexes were immunoprecipitated at 4°C in lysis buffer with green fluorescent protein (GFP)–Trap (ChromoTek) and washed in lysis buffer. Precipitated protein complexes were washed three times in lysis buffer, eluted in 2× SDS sample buffer, and subjected to Western blotting or MS as indicated.
Pull-downs were analyzed on a Q-Exactive Plus quadrupole or Fusion Orbitrap Lumos mass spectrometer (Thermo Fisher Scientific) equipped with Easy-nLC 1000 or […] (Thermo Fisher Scientific) and nanospray source (Thermo Fisher Scientific). Peptides were resuspended in 5% methanol/1% formic acid and loaded onto a trap column [1 cm in length, 100 μm in inner diameter, ReproSil, C18 AQ 5-μm 120-Å pore (Dr. Maisch, Ammerbuch, Germany)] vented to waste via a micro-tee and eluted across a fritless analytical resolving column (35 cm in length, 100 μm in inner diameter, ReproSil, C18 AQ 3-μm 120-Å pore) pulled in-house (Sutter P-2000, Sutter Instruments, San Francisco, CA) with a 45-min gradient of 5 to 30% liquid chromatography–MS (LC-MS) buffer B (LC-MS buffer A: 0.0625% formic acid and 3% acetonitrile (ACN); LC-MS buffer B: 0.0625% formic acid, 95% ACN Q-Exactive Plus quadrupole or 0.0625% formic acid and 80% ACN Fusion Orbitrap Lumos mass).
Static modifications included carbamidomethylcysteine, and variable modifications included oxidized methionine and STY phosphorylation. Searches were filtered using orthogonal measures including mass measurement accuracy (±3 parts per million), Xcorr for charges from +2 to +4, and dCn targeting a <1% false discovery rate at the peptide level. Quantification of LC-MS/MS spectra was performed using MassChroQ ([57]) and the iBAQ method ([58]). All data were analyzed using R 4.3.0. Missing values were imputed from a normal distribution. To be included in further analysis, proteins had to be identified with more than 1 total peptide and quantified in two or more replicates of each sample. In each dataset, the abundance of the protein of interest was normalized to be equal across all samples. Statistical analyses were done using a two-tailed Student’s t test.

[2] = biological target: T1, B55α (Homo sapiens, UniProt P63151); assay: Surface plasmon resonance with captured Twin-Strep B55α; type: binding; details: same SPR approach as for B55i; fig. S15
T1 construct: His; made in house; host or cells: HEK293 cells
T1 sequence (P63151 1-447): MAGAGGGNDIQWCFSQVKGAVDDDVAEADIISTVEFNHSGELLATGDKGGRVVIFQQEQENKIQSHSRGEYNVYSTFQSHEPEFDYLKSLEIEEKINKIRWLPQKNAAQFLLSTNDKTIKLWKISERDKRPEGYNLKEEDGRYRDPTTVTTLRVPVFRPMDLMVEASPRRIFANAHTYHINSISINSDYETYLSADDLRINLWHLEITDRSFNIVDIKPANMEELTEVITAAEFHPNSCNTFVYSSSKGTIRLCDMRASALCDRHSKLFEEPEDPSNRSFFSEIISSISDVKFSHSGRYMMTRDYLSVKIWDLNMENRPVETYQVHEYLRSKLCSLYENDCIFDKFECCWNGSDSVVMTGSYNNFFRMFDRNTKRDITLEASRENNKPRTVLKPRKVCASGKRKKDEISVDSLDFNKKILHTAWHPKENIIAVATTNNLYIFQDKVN

[3] = prey 2ABA_HUMAN (PPP2R2A, B55 alpha)
[4] = prey 2ABB_HUMAN (PPP2R2B, B55 beta)
[5] = prey 2ABD_HUMAN (PPP2R2D, B55 delta)
[6] = prey 2ABG_HUMAN (PPP2R2C, B55 gamma)

log2_ratio WT_M ([1]; prey 2AAA_HUMAN (PPP2R1A)): 1.05
log2_ratio WT_C ([1]; prey 2AAA_HUMAN (PPP2R1A)): 8.03
log2_ratio WT_M ([1]; prey 2AAB_HUMAN (PPP2R1B)): 1.40
log2_ratio WT_C ([1]; prey 2AAB_HUMAN (PPP2R1B)): 6.19
log2_ratio WT_M [1, 3]: 8.62
log2_ratio WT_C [1, 3]: 8.40
log2_ratio WT_M [1, 4]: 4.68
log2_ratio WT_C [1, 4]: 4.02
log2_ratio WT_M [1, 5]: 5.74
log2_ratio WT_C [1, 5]: 6.24
log2_ratio WT_M [1, 6]: 6.08
log2_ratio WT_C [1, 6]: 5.83
log2_ratio WT_M ([1]; prey PP2AA_HUMAN (PPP2CA)): 0.66
log2_ratio WT_C ([1]; prey PP2AA_HUMAN (PPP2CA)): 9.04
log2_ratio WT_M ([1]; prey PP2AB_HUMAN (PPP2CB)): 0.69
log2_ratio WT_C ([1]; prey PP2AB_HUMAN (PPP2CB)): 8.00
B1: PME1 wt (protein, UniProt Q9Y570 2-386, looked up)
Protein phosphatase …: SALEKSMHLGRLPSRPPLPGSGGSQSGAKMRMGPGRKRDFSPVPWSQYFESMEDVEVENETGKDTFRVYKSGSEGPVLLLLHGGGHSALSWAVFTAAIISRVQCRIVALDLRSHGETKVKNPEDLSAETMAKDVGNVVEAMYGDLPPPIMLIGHSMGGAIAVHTASSNLVPSLLGLCMIDVVEGTAMDALNSMQNFLRGRPKTFKSLENAIEWSVKSGQIRNLESARVSMVGQVKQCEGITSPEGSKSIVEGIIEEEEEDEEGSESISKRKKEDDMETKKDHPYTWRIELAKTEKYWDGWFRGLSNLFLSCPIPKLLLLAGVDRLDKDLTIGQMQGKFQMQVLPQCGHAVHEDAPDKVAEAVATFLIRHRFAEPIGGFQCVFPGC

binding to B55α, affinity range [2]: low micromolar
B2: PME1: full-length PME1 protein expressed in BL21(DE3) (protein)
chain: MSALEKSMHLGRLPSRPPLPGSGGSQSGAKMRMGPGRKRDFSPVPWSQYFESMEDVEVENETGKDTFRVYKSGSEGPVLLLLHGGGHSALSWAVFTAAIISRVQCRIVALDLRSHGETKVKNPEDLSAETMAKDVGNVVEAMYGDLPPPIMLIGHSMGGAIAVHTASSNLVPSLLGLCMIDVVEGTAMDALNSMQNFLRGRPKTFKSLENAIEWSVKSGQIRNLESARVSMVGQVKQCEGITSPEGSKSIVEGIIEEEEEDEEGSESISKRKKEDDMETKKDHPYTWRIELAKTEKYWDGWFRGLSNLFLSCPIPKLLLLAGVDRLDKDLTIGQMQGKFQMQVLPQCGHAVHEDAPDKVAEAVATFLIRHRFAEPIGGFQCVFPGC

binding to B55α, affinity range [2]: low micromolar
B3: Arpp19: full-length Arpp19 protein (S62E in the SPR method) (protein, UniProt P56211 1-112, looked up, variant S62E)
chain: MSAEVPEAASAEEQKEMEDKVTSPEKAEEAKLKARYPHLGQKPGGSDFLRKRLQKGQKYFDEGDYNMAKAKMKNKQLPTAAPDKTEVTGDHIPTPQDLPQRKPSLVASKLAG
modifications: full-length
